Measurements published in article PMC8692609, “Native mass spectrometry identifies the HybG chaperone as carrier of the Fe(CN)2CO group during maturation of E. coli [NiFe]-hydrogenase 2” (Scientific Reports, 2021).

B1: HypD (natural protein, E. coli, UniProt P24192 1-373, looked up)
chain: MRFVDEYRAPEQVMQLIEHLRERASHLSYTAERPLRIMEVCGGHTHAIFKFGLDQLLPENVEFIHGPGCPVCVLPMGRIDTCVEIASHPEVIFCTFGDAMRVPGKQGSLLQAKARGADVRIVYSPMDALKLAQENPTRKVVFFGLGFETTMPTTAITLQQAKARDVQNFYFFCQHITLIPTLRSLLEQPDNGIDAFLAPGHVSMVIGTDAYNFIASDFHRPLVVAGFEPLDLLQGVVMLVQQKIAAHSKVENQYRRVVPDAGNLLAQQAIADVFCVNGDSEWRGLGVIESSGVHLTPDYQRFDAEAHFRPAPQQVCDDPRARCGEVLTGKCKPHQCPLFGNTCNPQTAFGALMVSSEGACAAWYQYRQQESEA
notes: HypD, iron-sulfur cluster-containing hydrogenase maturation protein of Escherichia coli; untagged; Carries a 4Fe-4S cluster; Untagged unless stated otherwise; also called HypD scaffold protein
B2: N-terminally His-tagged pre-HybC (natural protein, E. coli, UniProt P0ACE0 1-567, looked up)
chain: MSQRITIDPVTRIEGHLRIDCEIENGVVSKAWASGTMWRGMEEIVKNRDPRDAWMIVQRICGVCTTTHALSSVRAAESALNIDVPVNAQYIRNIILAAHTTHDHIVHFYQLSALDWVDITSALQADPTKASEMLKGVSTWHLNSPEEFTKVQNKIKDLVASGQLGIFANGYWGHPAMKLPPEVNLIAVAHYLQALECQRDANRVVALLGGKTPHIQNLAVGGVANPINLDGLGVLNLERLMYIKSFIDKLSDFVEQVYKVDTAVIAAFYPEWLTRGKGAVNYLSVPEFPTDSKNGSFLFPGGYIENADLSSYRPITSHSDEYLIKGIQESAKHSWYKDEAPQAPWEGTTIPAYDGWSDDGKYSWVKSPTFYGKTVEVGPLANMLVKLAAGRESTQNKLNEIVAIYQKLTGNTLEVAQLHSTLGRIIGRTVHCCELQDILQNQYSALITNIGKGDHTTFVKPNIPATGEFKGVGFLEAPRGMLSHWMVIKDGIISNYQAVVPSTWNSGPRNFNDDVGPYEQSLVGTPVADPNKPLEVVRTIHSFDPCMACAVHVVDADGNEVVSVKVL
notes: HybC, large (catalytic) subunit of hydrogenase 2 of Escherichia coli, as the immature precursor that still has the C-terminal peptide removed on maturation; also called apo-form of the hydrogenase 2 catalytic subunit; hydrogenase 2 large-subunit precursor; source: E. coli (plasmid pCAN-hybC_(stop)), purified on cobalt-charged TALON Superflow agarose; not shown: His tag, N-terminal, kept
B3: StrepII-tagged HybG (natural protein, E. coli, UniProt P0AAM7 1-82, looked up)
chain: MCIGVPGQVLAVGEDIHQLAQVEVCGIKRDVNIALICEGNPADLLGQWVLVHVGFAMSIIDEDEAKATLDALRQMDYDITSA
modifications: populations with a +26 Da modification on the N-terminal cysteinyl residue, a further +44 Da (CO2) modification, or the Fe(CN)2CO group (+136 Da; only on HybG dissociated from the native HybG-HypD complex)
notes: HybG, HypC-family hydrogenase maturation chaperone of Escherichia coli; the N-terminal residue of the protein is the cysteine that is formally amino acid position 2; Deconvoluted mass of the unmodified tagged protein is printed as 9615 Da; also called StrepII-HybG; native HybG; not shown: StrepII, C-terminal, kept

Legend:
StrepII-tagged HybG [1] = target: B3; experiment: native MS; isolated StrepII-HybG–HypD complex; 500 mM ammonium acetate pH 6.8, about 10 uM protein, nano-ESI Q-TOF, collision energy 40 V; CID-MS/MS of the 13+ ion at 80 V; settings: both partners purified
StrepII-tagged HybG [2] = target: B3; experiment: native MS; purified N-terminally His-tagged pre-HybC supplemented with equimolar amounts of StrepII-HybG; 500 mM ammonium acetate pH 6.8; CID-MS/MS of the 16+ complex ion; settings: both partners purified
[3] = target: the molecule itself; experiment: as above

Binder	stoichiometry N (StrepII-tagged HybG [1])	stoichiometry N (StrepII-tagged HybG [2])	stoichiometry N [3]
B1	1 HybG:HypD	–	–
B2	–	1 HybG:pre-HybC	2
B3	–	–	2
